The text below walks through data of publication PMC5705180.

This test deals with Recombinant human IGF-II R (CI-MPR), cation-independent mannose-6-phosphate receptor (human) (UniProt P11717). As to the kind of experiment: SPR. A general note: Surface plasmon resonance follows binding to a sensor surface in real time, without labels.
As usually defined, the Kd is a measure of binding affinity in units of concentration. On to “Phosphoglycoprotein 32: bovine ribonuclease B carrying the unnatural bis-M6P Man3GlcNAc2 glycan (from UniProt P61823 27-150) (enzyme)”, for which the Kd is 0.168 µM.
Next, “Bis-phosphoglycoprotein 30: bovine ribonuclease B carrying a bis-M6P-Man6GlcNAc2 glycan at Asn-34 (from UniProt P61823 27-150) (enzyme)”: 0.0289 µM.
Consider “Cyclic phosphoglycopeptide 34: HIV-1 ZM109 V1V2 cyclic peptide carrying two bis-M6P-Man6GlcNAc2 glycans at N160 and N173”, for which the Kd was 0.00235 µM.
